Experimental findings from PMC4329502 are described below.

The target of assay [1] is HER2 antigen (UniProt P04626). Briefly: ELISA. A general note: An ELISA detects its analyte on a solid surface through an enzyme-linked reagent.
Assay [2] has as its target EGFR1 antigen (Homo sapiens (assumed)) (UniProt P00533). Briefly: ELISA.

The Kd is the equilibrium constant for the complex coming apart. Low readings indicate higher affinity, high ones lower affinity. The substance ZHER2:4 affibody (designed binder) gave an equilibrium dissociation constant (Kd) in assay [1] of 47.9 nM.
With anti-EGFR1 nanobody 7D12 (VHH), the Kd in assay [2] amounted to 3.5 nM.
